Test results taken from PMC11679068, “Affinity Peptide-Based Circularly Permuted Fluorescent Protein Biosensors for Non-Small Cell Lung Cancer Diagnosis” (Sensors (Basel, Switzerland), 2024).
Peptide text beside a SMILES is read from it.

T1: cytokeratin fragment 19 (Limits are not printed. The conventional CYFRA 21-1 soluble C-terminal fragment of KRT19 (after caspase-3 cleavage at Asp238) is used; from general knowledge, not from the paper or the candidate featu)
T1 chain: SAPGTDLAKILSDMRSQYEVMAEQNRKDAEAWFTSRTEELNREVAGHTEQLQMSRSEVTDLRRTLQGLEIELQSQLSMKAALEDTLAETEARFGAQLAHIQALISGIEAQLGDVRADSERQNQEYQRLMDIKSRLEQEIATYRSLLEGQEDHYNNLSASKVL

T2: carcinoembryonic antigen (UniProt P06731 35-685)
T2 construct: carcinoembryonic antigen (CEA), serum tumor marker; also called CEA; CAE
T2 sequence (looked up): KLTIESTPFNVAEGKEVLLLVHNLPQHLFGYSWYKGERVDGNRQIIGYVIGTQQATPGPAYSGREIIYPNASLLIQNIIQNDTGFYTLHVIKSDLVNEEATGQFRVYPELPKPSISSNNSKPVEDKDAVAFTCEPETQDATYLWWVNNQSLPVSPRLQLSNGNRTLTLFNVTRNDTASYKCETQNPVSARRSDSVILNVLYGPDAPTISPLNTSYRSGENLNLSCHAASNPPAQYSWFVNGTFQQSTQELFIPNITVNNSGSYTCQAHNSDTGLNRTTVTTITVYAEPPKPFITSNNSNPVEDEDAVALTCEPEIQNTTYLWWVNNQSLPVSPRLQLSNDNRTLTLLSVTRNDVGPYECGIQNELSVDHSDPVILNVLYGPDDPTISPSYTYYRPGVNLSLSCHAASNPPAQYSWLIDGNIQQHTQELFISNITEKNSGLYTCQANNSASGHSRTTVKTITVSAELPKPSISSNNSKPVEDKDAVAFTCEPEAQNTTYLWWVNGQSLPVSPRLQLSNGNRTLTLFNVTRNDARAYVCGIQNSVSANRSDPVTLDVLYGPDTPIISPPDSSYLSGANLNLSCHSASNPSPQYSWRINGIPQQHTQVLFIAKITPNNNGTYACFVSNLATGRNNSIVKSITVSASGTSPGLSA

B1: synthetic peptide Y3 (peptide)
peptide: GMCSFVDVANCP
notes: dodecapeptide Y3 from phage display, synthesized; source: synthetic peptide (Fmoc solid phase, Synpeptide Co., HPLC purified)
B2: synthetic peptide C3 (peptide)
peptide: WSPSALLPSSVT
notes: dodecapeptide C3 from phage display, synthesized; source: synthetic peptide (Fmoc solid phase, Synpeptide Co., HPLC purified)
B3: synthetic peptide S3 (peptide)
peptide: IQCFSLAPYVGC
notes: dodecapeptide S3 from phage display, synthesized; source: synthetic peptide (Fmoc solid phase, Synpeptide Co., HPLC purified)
B4: synthetic peptide C2 (peptide)
peptide: YGVSALSSYVSC
notes: dodecapeptide C2 from phage display, synthesized; source: synthetic peptide (Fmoc solid phase, Synpeptide Co., HPLC purified)
B5: synthetic peptide Y10 (peptide)
peptide: QSYFNACWSCNH
notes: source: synthetic peptide (Fmoc solid phase, Synpeptide Co., HPLC purified)
B6: synthetic peptide S2 (peptide)
peptide: AYSRDVVLNMWR
notes: dodecapeptide S2 from phage display, synthesized; source: synthetic peptide (Fmoc solid phase, Synpeptide Co., HPLC purified)
B7: synthetic peptide C4 (peptide)
peptide: HHRLTRSMQLMM
notes: dodecapeptide C4 from phage display, synthesized; source: synthetic peptide (Fmoc solid phase, Synpeptide Co., HPLC purified)
B8: synthetic peptide Y1 (peptide)
peptide: CFAGTPSILMLA
notes: dodecapeptide Y1 from phage display, synthesized; source: synthetic peptide (Fmoc solid phase, Synpeptide Co., HPLC purified)
B9: synthetic peptide S1 (peptide)
peptide: TLSWHQNLRLME
notes: dodecapeptide S1 from phage display, synthesized; source: synthetic peptide (Fmoc solid phase, Synpeptide Co., HPLC purified)

Tests used:
CYFRA 21-1 = assay: BLI binding affinity of synthesized peptides to immobilized CYFRA 21-1; details: Octet RH96, CYFRA 21-1 immobilized on AR2G biosensors by amine coupling, room temperature, association 90 s, dissociation 180 s, KD = kd/ka
Description: The binding affinities of the peptides to their respective markers were assessed using an Octet RH96 instrument (Sartorius AG, Goettingen, Germany) with software version 12.2.1.18. Markers CEA, SCCAg, and CYFRA 21-1 were immobilized on amine reactive second-generation biosensors (AR2G, Sartorius AG) via amine coupling, with ethanolamine used to quench unreacted sites. Peptides were prepared in a range of concentrations. Experiments were conducted at room temperature and involved three phases: baseline (60 s), association (90 s), and dissociation (180 s). Data analysis was performed using Octet Data Analysis software version 11.0 to calculate the equilibrium dissociation constant (KD) as dissociation constant (kd)/association constant (ka).

cytokeratin fragment 19 = target: T1, cytokeratin fragment 19; assay: BLI; Octet RH96; CEA, SCCAg or CYFRA 21-1 immobilised on AR2G biosensors by amine coupling; peptides in a range of concentrations; room temperature; association 90 s, dissociation 180 s; KD as kd/ka; details: both partners purified
carcinoembryonic antigen = target: T2, carcinoembryonic antigen; assay: as above; details: both partners purified
[1] = target: squamous cell carcinoma antigen (UniProt P29508 1-390); assay: as above; details: both partners purified
Chain of squamous cell carcinoma antigen (P29508 whole entry): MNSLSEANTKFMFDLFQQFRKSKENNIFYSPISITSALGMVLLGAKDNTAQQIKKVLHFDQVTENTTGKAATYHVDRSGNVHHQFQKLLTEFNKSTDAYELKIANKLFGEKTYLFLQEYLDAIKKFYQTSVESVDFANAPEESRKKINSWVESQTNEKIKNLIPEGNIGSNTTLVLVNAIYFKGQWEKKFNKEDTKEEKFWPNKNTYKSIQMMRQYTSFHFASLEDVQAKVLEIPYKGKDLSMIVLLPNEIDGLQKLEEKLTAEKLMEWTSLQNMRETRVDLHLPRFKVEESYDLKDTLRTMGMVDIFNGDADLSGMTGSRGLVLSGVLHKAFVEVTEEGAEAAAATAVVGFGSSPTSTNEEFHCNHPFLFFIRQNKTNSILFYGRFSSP

Row | Molecule | Kd (cytokeratin fragment 19) | Kd (carcinoembryonic antigen) | Kd [1] | further results
1 | CSCC[C@H](NC(=O)CN)C(=O)N[C@@H](CS)C(=O)N[C@@H](CO)C(=O)N[C@@H](Cc1ccccc1)C(=O)N[C@H](C(=O)N[C@@H](CC(=O)O)C(=O)N[C@H](C(=O)N[C@@H](C)C(=O)N[C@@H](CC(N)=O)C(=O)N[C@@H](CS)C(=O)N1CCC[C@H]1C(=O)O)C(C)C)C(C)C [Peptide Y3] (H-GMCSFVDVANCP-OH) |  |  |  | Kd (CYFRA 21-1): 14 nM
2 | B1 | 14 nM |  |  | 
3 | B2 |  | 460 nM |  | 
4 | B3 |  |  | 2900 nM | 
5 | B4 |  | 870 nM |  | 
6 | B5 | 1000 nM |  |  | 
7 | B6 |  |  | 6.1 nM | 
8 | B7 |  | 16 nM |  | 
9 | B8 | 83 nM |  |  | 
10 | B9 |  |  | 28 nM | 
